Literature values, collected in publication PMC6006191.

Target: GLRX3 (Homo sapiens) (UniProt O76003)
Experiment: NMR

Chain of UniProt O76003 (O76003 2-335): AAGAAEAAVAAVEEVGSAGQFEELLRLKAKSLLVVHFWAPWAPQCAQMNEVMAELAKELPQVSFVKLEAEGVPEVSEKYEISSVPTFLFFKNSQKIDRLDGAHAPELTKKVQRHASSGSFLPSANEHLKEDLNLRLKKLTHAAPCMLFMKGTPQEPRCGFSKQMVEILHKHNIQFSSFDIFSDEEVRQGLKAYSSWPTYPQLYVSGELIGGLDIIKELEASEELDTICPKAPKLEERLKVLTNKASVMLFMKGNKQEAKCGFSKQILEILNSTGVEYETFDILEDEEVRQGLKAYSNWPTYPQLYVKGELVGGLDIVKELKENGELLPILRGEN

Kd: 25 µM
Substance: BOLA2 (apo) (from UniProt Q9H3K6)
